From US20240343823A1 (Ablynx, published 2024)
Read-outs that look alike come from different tables or passages of the source.

Tests used:
[1] = biological target: T1, human GPC3 on tumor cell lines (HepG2, Huh-7, NCI-H661, MKN-45, NCI-H23, BxPC-3, NCI-H292) (human, UniProt P51654 25-554); assay: cell-based or functional assay
[2] = biological target: T1, human GPC3 on tumor cell lines (HepG2, …); assay: cell-based or functional assay; remark: listed apart in the source
[3] = biological target: T1, human GPC3 on tumor cell lines (HepG2, …); assay: cell-based or functional assay; remark: listed apart in the source
[4] = biological target: T1, human GPC3 on tumor cell lines (HepG2, …); assay: cell-based or functional assay; remark: listed apart in the source
[5] = biological target: T1, human GPC3 on tumor cell lines (HepG2, …); assay: flow cytometry on HepG2 cells
[6] = biological target: T1, human GPC3 on tumor cell lines (HepG2, …); assay: flow cytometry on Huh-7 cells
[7] = biological target: T1, human GPC3 on tumor cell lines (HepG2, …); assay: flow cytometry on HepG2 and Huh-7 cells
Description: Periplasmic extracts were screened for human and cyno GPC3 binding in flow cytometry using CHO Flp-In cells (Invitrogen cat nr. K6010) expressing either human GPC3 (accession number P51654; Q25-R358, S359-H580) or cyno GPC3 (accession number P51654; Q3-R358; S359-H559), respectively. In brief, 1×10⁵ cells were incubated in 1:5 diluted periplasmic extracts for 30 min at 4° C., and then washed 3 times. As a control, the parental CHO Flp-In cell line (Invitrogen cat nr. K6010) was included. […] Samples were washed and resuspended in FACS Buffer (D-PBS (Gibco) with 10% FBS (Sigma) and 0.05% sodium azide (Merck)) supplemented with 5 nM TOPRO3 (Molecular Probes, cat nr T3605). Cell suspensions were then analyzed on a FACS Array. Gating was set on live, intact cells using forward/side scatter and TOPRO3 channel fluorescence parameters.
Variants were evaluated for binding to HepG2, Huh-7 and CHO Flip-In cyno-GPC3 cells by flow cytometry, as described in Example 1.

[8] = biological target: T2, cyno GPC3 expressed on CHO Flp-In cells (cynomolgus); assay: flow cytometry on CHO Flp-In cyno GPC3 cells
T2 construct: range 3-559; On cells; also called cyGPC3 CHO; CHO-cGPC3

[9] = biological target: T2, cyno GPC3 expressed on CHO Flp-In cells; assay: flow cytometry on CHO Flp-In cyno GPC3 cells; remark: listed apart in the source
[10] = biological target: T1, human GPC3 on tumor cell lines (HepG2, …); assay: cell-based or functional assay; remark: listed apart in the source
[11] = biological target: T1, human GPC3 on tumor cell lines (HepG2, …); assay: cell-based or functional assay; remark: listed apart in the source

B1: A022600168 (other)
chain: DVQLVESGGGVVQPGGSLRLSCVASGYVHKINFYGWYRQAPGKEREKVAHISIGDQTDYADSAKGRFTISRDESKNTVYLQMNSLRPEDTAAYYCRALSRIWPYDYWGQGTLVTVSSGGGGSEVQLVESGGGLVQPGGSLRLSCVASGFTFSSFAMTWVRRPPGKGLEWVATITNGGVTSYRDSVKGRFTISRDNAKNTLYLEMTSLNPEDTAVYICANARRTGPRAPTDIGSYRGQGTLVTVSSGGGGSGGGGSGGGGSGGGGSGGGGSGGGGSGGGGSEVQLVESGGGLVQPGGSLRLSCVASGSIFRSVFSSSTMEWYRQPPGKKRELVARIAPGDGTNYGALYADSVKGRFTISRDDAKKTVDLQMNSLKPEDTGVYFCASGVAWGQGTLVTVSSGGGGSGGGGSGGGGSGGGGSGGGGSGGGGSGGGGSEVQLVESGGGVVQPGGSLRLSCAASGFTFRSFGMSWVRQAPGKGPEWVSSISGSGSDTLYADSVKGRFTISRDNSKNTLYLQMNSLRPEDTALYYCTIGGSLSRSSQGTLVTVSSA
[1]
  HepG2 on Incucyte IC50: 0.367 nM
  HepG2 on Incucyte Max % killing: 103%
  Huh7 on xCELLigence IC50: 0.198 nM
  Huh7 on xCELLigence Max % killing: 107%
[2]
  HepG2 on Incucyte IC50: 0.367 nM
  HepG2 on Incucyte Max % killing: 103%
  Huh7 on xCELLigence IC50: 0.198 nM
  Huh7 on xCELLigence Max % killing: 107%
[3]
  HepG2 on Incucyte IC50: 0.367 nM
  HepG2 on Incucyte Max % killing: 103%
  Huh7 on xCELLigence IC50: 0.198 nM
  Huh7 on xCELLigence Max % killing: 107%
[4]
  IC50 (M), xCELLigence human TDC assay, Hep-G2: 7.3e-11 M
  IC50 (M), xCELLigence human TDC assay, Huh-7: 2.4e-11 M
  IC50 (M), xCELLigence human TDC assay, NCI-H661: 1.4e-10 M

B2: A022600345 (VHH)
VHH: EVQLVESGGGVVQPGGSLRLSCAASGFTFSSFAMTWVRRPPGKGLEWVATITNAGVTSYADSVKGRFTISRDNAKNTLYLQMNSLRPEDTALYICANARRTGPRAPTDIGSYRGQGTLVTVSS
[5]
  EC50: 0.391 nM
[6]
  EC50: 0.276 nM
[7]
  fold increase in binding potency against parental A0226018C08: 2 fold
[8]
  fold increase in binding potency against parental A0226018C08: 2 fold
[9]
  EC50: 0.15 nM

B3: A022600105 (other)
chain: DVQLVESGGGVVQPGGSLRLSCVASGYVHKINFYGWYRQAPGKEREKVAHISIGDQTDYADSAKGRFTISRDESKNTVYLQMNSLRPEDTALYYCRALSRIWPYDYWGQGTLVTVSSGGGGSGGGGSGGGGSGGGGSEVQLVESGGGLVQPGGSLRLSCVASGFTFSSFAMTWVRRPPGKGLEWVATITNGGVTSYRDSVKGRFTISRDNAKNTLYLEMTSLNPEDTAVYICANARRTGPRAPTDIGSYRGQGTLVTVSSGGGGSGGGGSGGGGSGGGGSGGGGSGGGGSGGGGSEVQLVESGGGVVQPGGSLRLSCAASGFTFRSFGMSWVRQAPGKGPEWVSSISGSGSDTLYADSVKGRFTISRDNSKNTLYLQMNSLRPEDTALYYCTIGGSLSRSSQGTLVTVSSA
[10]
  IC50 (M), Incucyte human TDC HepG2-Nuclight green assay: 2.14e-09 M
  Max % Killing, Incucyte human TDC HepG2-Nuclight green assay: 85%

B4: A022600096 (other)
chain: DVQLVESGGGLVQPGGSLRLSCVASGYVHKINFYGWYRQAPGKEREKVAHISIGDQTDYADSAKGRFTISRDESKNTVYLQMNSLRPEDTALYYCRALSRIWPYDYWGQGTLVTVSSGGGGSGGGGSGGGGSGGGGSGGGGSGGGGSGGGGSEVQLVESGGGLVQPGGSLRLSCVASGFTFSSFAMTWVRRPPGKGLEWVATITNGGVTSYRDSVKGRFTISRDNAKNTLYLEMTSLNPEDTAVYICANARRTGPRAPTDIGSYRGQGTLVTVSSGGGGSGGGGSGGGGSGGGGSGGGGSGGGGSGGGGSEVQLVESGGGVVQPGGSLRLSCAASGFTFRSFGMSWVRQAPGKGPEWVSSISGSGSDTLYADSVKGRFTISRDNSKNTLYLQMNSLRPEDTALYYCTIGGSLSRSSQGTLVTVSSA
[10]
  IC50 (M), Incucyte human TDC HepG2-Nuclight green assay: 1.4e-09 M
  Max % Killing, Incucyte human TDC HepG2-Nuclight green assay: 72%

B5: A022600104 (other)
chain: DVQLVESGGGVVQPGGSLRLSCVASGYVHKINFYGWYRQAPGKEREKVAHISIGDQTDYADSAKGRFTISRDESKNTVYLQMNSLRPEDTALYYCRALSRIWPYDYWGQGTLVTVSSGGGGSGGGSEVQLVESGGGLVQPGGSLRLSCVASGFTFSSFAMTWVRRPPGKGLEWVATITNGGVTSYRDSVKGRFTISRDNAKNTLYLEMTSLNPEDTAVYICANARRTGPRAPTDIGSYRGQGTLVTVSSGGGGSGGGGSGGGGSGGGGSGGGGSGGGGSGGGGSEVQLVESGGGVVQPGGSLRLSCAASGFTFRSFGMSWVRQAPGKGPEWVSSISGSGSDTLYADSVKGRFTISRDNSKNTLYLQMNSLRPEDTALYYCTIGGSLSRSSQGTLVTVSSA
[10]
  IC50 (M), Incucyte human TDC HepG2-Nuclight green assay: 2.13e-09 M
  Max % Killing, Incucyte human TDC HepG2-Nuclight green assay: 90%

B6: A022600167 (other)
chain: DVQLVESGGGVVQPGGSLRLSCVASGYVHKINFYGWYRQAPGKEREKVAHISIGDQTDYADSAKGRFTISRDESKNTVYLQMNSLRPEDTAAYYCRALSRIWPYDYWGQGTLVTVSSGGGGSEVQLVESGGGLVQPGGSLRLSCVASGFTFSSFAMTWVRRPPGKGLEWVATITNGGVTSYRDSVKGRFTISRDNAKNTLYLEMTSLNPEDTAVYICANARRTGPRAPTDIGSYRGQGTLVTVSSGGGGSGGGGSGGGGSGGGGSGGGGSGGGGSGGGGSEVQLVESGGGVVQPGGSLRLSCAASGFTFRSFGMSWVRQAPGKGPEWVSSISGSGSDTLYADSVKGRFTISRDNSKNTLYLQMNSLRPEDTALYYCTIGGSLSRSSQGTLVTVSSA
[1]
  HepG2 on Incucyte IC50: 1.92 nM
  HepG2 on Incucyte Max % killing: 98%
  Huh7 on xCELLigence IC50: 8.61 nM
  Huh7 on xCELLigence Max % killing: 91%
[2]
  HepG2 on Incucyte IC50: 1.92 nM
  HepG2 on Incucyte Max % killing: 98%
  Huh7 on xCELLigence IC50: 8.61 nM
  Huh7 on xCELLigence Max % killing: 91%
[3]
  HepG2 on Incucyte IC50: 1.92 nM
  HepG2 on Incucyte Max % killing: 98%
  Huh7 on xCELLigence IC50: 8.61 nM
  Huh7 on xCELLigence Max % killing: 91%
[4]
  IC50 (M), xCELLigence human TDC assay, Hep-G2: 9.2e-11 M
  IC50 (M), xCELLigence human TDC assay, Huh-7: 4.7e-10 M
  IC50 (M), xCELLigence human TDC assay, NCI-H661: 1.8e-10 M

B7: A022600103 (other)
chain: DVQLVESGGGVVQPGGSLRLSCVASGYVHKINFYGWYRQAPGKEREKVAHISIGDQTDYADSAKGRFTISRDESKNTVYLQMNSLRPEDTALYYCRALSRIWPYDYWGQGTLVTVSSGGGGSEVQLVESGGGLVQPGGSLRLSCVASGFTFSSFAMTWVRRPPGKGLEWVATITNGGVTSYRDSVKGRFTISRDNAKNTLYLEMTSLNPEDTAVYICANARRTGPRAPTDIGSYRGQGTLVTVSSGGGGSGGGGSGGGGSGGGGSGGGGSGGGGSGGGGSEVQLVESGGGVVQPGGSLRLSCAASGFTFRSFGMSWVRQAPGKGPEWVSSISGSGSDTLYADSVKGRFTISRDNSKNTLYLQMNSLRPEDTALYYCTIGGSLSRSSQGTLVTVSSA
[10]
  IC50 (M), Incucyte human TDC HepG2-Nuclight green assay: 2.04e-09 M
  Max % Killing, Incucyte human TDC HepG2-Nuclight green assay: 92%
[11]
  IC50 (M), Incucyte human TDC HepG2-Nuclight green assay: 5.43e-10 M
  Max % Killing, Incucyte human TDC HepG2-Nuclight green assay: 90%
[1]
  HepG2 on Incucyte IC50: 1.23 nM
  HepG2 on Incucyte Max % killing: 96%
  Huh7 on xCELLigence IC50: 7.11 nM
  Huh7 on xCELLigence Max % killing: 71%

B8: A022600102 (other)
chain: DVQLVESGGGVVQPGGSLRLSCVASGYVHKINFYGWYRQAPGKEREKVAHISIGDQTDYADSAKGRFTISRDESKNTVYLQMNSLRPEDTALYYCRALSRIWPYDYWGQGTLVTVSSAAAEVQLVESGGGLVQPGGSLRLSCVASGFTFSSFAMTWVRRPPGKGLEWVATITNGGVTSYRDSVKGRFTISRDNAKNTLYLEMTSLNPEDTAVYICANARRTGPRAPTDIGSYRGQGTLVTVSSGGGGSGGGGSGGGGSGGGGSGGGGSGGGGSGGGGSEVQLVESGGGVVQPGGSLRLSCAASGFTFRSFGMSWVRQAPGKGPEWVSSISGSGSDTLYADSVKGRFTISRDNSKNTLYLQMNSLRPEDTALYYCTIGGSLSRSSQGTLVTVSSA
[10]
  IC50 (M), Incucyte human TDC HepG2-Nuclight green assay: 1.72e-09 M
  Max % Killing, Incucyte human TDC HepG2-Nuclight green assay: 94%
